One may read the EC50 (read off the curve) as the concentration that produces a half-maximal response.

1 molecule from patent US20250090677A1 (MULTITUDE THERAPEUTICS, published 2025) can be followed below.

Assay [1] concerns the target T1, CDH6 on the cell surface of OVCAR-3 cells (human ovarian cancer cells) (human, UniProt P55285 54-790).
T1 construct: whole, on cells; also called CDH6-positive human ovarian cancer cell line OVCAR-3
T1 sequence (looked up): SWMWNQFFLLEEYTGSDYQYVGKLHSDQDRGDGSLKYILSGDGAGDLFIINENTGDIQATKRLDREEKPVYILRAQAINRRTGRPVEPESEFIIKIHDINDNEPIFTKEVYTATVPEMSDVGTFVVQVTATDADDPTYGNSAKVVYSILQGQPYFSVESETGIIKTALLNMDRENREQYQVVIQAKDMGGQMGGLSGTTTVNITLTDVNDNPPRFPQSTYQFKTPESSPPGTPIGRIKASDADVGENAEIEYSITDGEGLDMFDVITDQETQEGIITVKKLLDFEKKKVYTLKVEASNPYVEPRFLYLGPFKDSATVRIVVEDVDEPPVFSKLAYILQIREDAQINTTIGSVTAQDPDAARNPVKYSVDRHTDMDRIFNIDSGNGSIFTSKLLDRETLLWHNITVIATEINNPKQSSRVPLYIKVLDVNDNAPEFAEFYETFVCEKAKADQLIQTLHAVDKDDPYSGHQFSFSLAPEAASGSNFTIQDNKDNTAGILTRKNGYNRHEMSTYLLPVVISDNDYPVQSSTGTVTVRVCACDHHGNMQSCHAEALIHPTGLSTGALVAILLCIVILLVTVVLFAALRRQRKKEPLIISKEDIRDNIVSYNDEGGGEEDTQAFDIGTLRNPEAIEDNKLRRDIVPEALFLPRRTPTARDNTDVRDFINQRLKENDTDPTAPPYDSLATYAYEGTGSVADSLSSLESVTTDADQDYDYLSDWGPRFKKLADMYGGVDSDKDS
The assay can be described thus: flow cytometry (FACS) on OVCAR-3 cells, antibody titration, labelled secondary antibody, MFI. On the procedure:
The binding EC50 of the humanized antibodies on tumor cell were tested as follow. Human ovarian cancer cell line OVCAR-3(purchased from National Collection of Authenticated Cell Cultures) cell culture was maintained in vitro as independent monolayer cultures at 37° C. in an atmosphere of 5% CO₂. The cells were harvested using trypsin-EDTA partial digestion followed by centrifugation at 1000 rpm for 5 minutes. The cell was resuspended in cold PBS and serial dilution of Ch069707 and CL069707-H1L1, CL069707-H1L2, CL069707-H2L1 and CL069707-H2L2 antibodies were added. Ch069707 antibody was a chimeric antibody. The variable regions were the same as those of CL069707, and the constant region was the same as human IgG1 constant regions (SEQ ID NO: 70 and SEQ ID NO: 71). The cell solutions were mixed, incubated at 4° C. and washed with cold PBS prior to addition of secondary antibody conjugates (for detection purposes). After incubation at 4° C., the cells were washed with PBS, and then subjected to flow cytometry (FACS) analysis.

A further assay addresses T2, human CDH9-ECD-His (human, UniProt Q9ULB4 54-615).
T2 construct: extracellular domain; Bought protein; also called CDH9-ECD-His protein; not shown: His tag
T2 sequence (looked up): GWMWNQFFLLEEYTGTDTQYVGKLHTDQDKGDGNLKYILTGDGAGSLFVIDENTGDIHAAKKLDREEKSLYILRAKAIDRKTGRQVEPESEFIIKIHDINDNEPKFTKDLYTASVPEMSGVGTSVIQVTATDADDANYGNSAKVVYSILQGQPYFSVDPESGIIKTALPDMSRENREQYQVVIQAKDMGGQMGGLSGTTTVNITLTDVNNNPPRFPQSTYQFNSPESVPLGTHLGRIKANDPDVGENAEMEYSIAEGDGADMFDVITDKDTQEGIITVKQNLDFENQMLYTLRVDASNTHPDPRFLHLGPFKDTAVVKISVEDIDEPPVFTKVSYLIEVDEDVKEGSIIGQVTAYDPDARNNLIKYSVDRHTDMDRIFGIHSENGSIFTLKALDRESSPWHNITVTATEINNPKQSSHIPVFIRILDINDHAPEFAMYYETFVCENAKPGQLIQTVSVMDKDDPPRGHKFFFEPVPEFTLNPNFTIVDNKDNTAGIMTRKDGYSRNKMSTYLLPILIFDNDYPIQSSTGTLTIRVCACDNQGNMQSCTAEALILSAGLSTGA
The assay can be described thus: ELISA, antigen coated at 1 ug/mL, 3-fold dilutions of CL069707-H1L1, HRP anti-human antibody, OD450. The protocol:
CDH9 and […] are the most closely related family members to CDH6. Binding of CL069707-H1L1 on human CDH6, CDH9 and CDH10 ECD domains were analyzed by ELISA Binding Assay. Human […], CDH9-ECD-His and CDH10-ECD-His antigens were obtained from Acro Biosystems, Inc. 100 μL of 1 μg/mL of the antigens diluted in PBS were added to 96 well plates and incubated in 4° C. overnight. The plates were washed 3 times with 300 μL of washing buffer. Then 100 μL/well of 1% BSA blocking reagent were added to the plates, and incubated at 37° C. for 1 h then the blocking reagent were discarded. A 3-fold serial dilution of CL069707-H1L1 was added to the plates and then incubated at 37° C. for 1 h. Then the plates were washed 3 times with 300 μL of washing buffer. 100 μL/well of HRP-conjugated anti-Human antibody diluted in 1% BSA were added to the plates and then incubated at 37° C. for 1 h. The plates were washed 3 times with 300 μL of washing buffer. 100 μL/well of TMB substrate were added to the plates and incubated for about 10 min in room temperature. Then the reaction was stopped with 100 μL/well of stopping solution. OD450 was read with a plate reader and the data were processed.
For orientation: An ELISA detects its analyte on a solid surface through an enzyme-linked reagent.

B1: CL069707-H1L1 (antibody, human IgG1, kappa, V domains shown)
VH: EVQLVESGGGLVQPGGSLRLSCAASGFTFTTYAMNWVRQAPGKGLEWVARIRIKNNNYATYYADSVTDRFTISRDDSKNSLYLQMNSLKTEDTAVYYCVRPDYGNYGLAYWGQGTLVTVSS
VL: DIQLTQSPSSLSASVGDRVTITCSASSSISSHYLHWYQQKPGKSPKLLIYRSFYLASGVPSRFSGSGSGTDFTLTISSLQPEDFATYYCQQDIVPLTFGQGTKLEIKR
notes: Humanized IgG1/kappa, produced in 293 cells; also called humanized CL069707-H1L1
As for B1, the “EC50 (read off the curve)” value in assay [1] is roughly 1 nM. For the same molecule, in the assay with human CDH9-ECD-His, the binding result was “no binding (tested: 100 nM)”.
